Experimental findings from patent US20260242721A1, “A SYNTHETIC CELLULAR ADVANCED SIGNAL ADAPTER (SCASA) SYSTEM” (Danmarks Tekniske Universitet, priority 2023, published 2026) are described below.

Assay [1] relates to pheromone response pathway (PRP). The conditions noted are these: across all strains, 5 hrs. As for the experimental part:
To investigate the dose-response features of the selected promoters PMFA2, PFUS1, PAGA2, PFIG.1, PMFA1, PYCL076W, PHPF1, PIME4, PCSS1, PTDH3, PPGK1 and P6XLexOLEU2 upon GPCR stimulation the strains were pre-grown in SC (24 hrs.), whereafter, for each replicate, cells were transferred to 200 μL volumes comprising a 10-fold dilution series of α-factor (0-100 μM) (GenScript) dissolved in SC+1% DMSO, and stimulated for 5 hrs. (30° C., 250 r.p.m.). Flow cytometric measurement was done to quantify yEGFP levels (B525/45-A) and PRP-regulated morphological changes, denoted shmooing (SSC-A) using a NovoCyte Quanteon flow cytometer (Agilent). Data represents means of median fluorescence intensity (mMFI) for three biological replicates and standard deviations hereof. Two-way ANOVA with Tukey's multiple comparisons test was conducted for all conditions.

Assay [2] concerns the target T1, Saccharomyces cerevisiae α-factor pheromone receptor (Ste2) (Saccharomyces cerevisiae) (UniProt D6VTK4).
T1 sequence: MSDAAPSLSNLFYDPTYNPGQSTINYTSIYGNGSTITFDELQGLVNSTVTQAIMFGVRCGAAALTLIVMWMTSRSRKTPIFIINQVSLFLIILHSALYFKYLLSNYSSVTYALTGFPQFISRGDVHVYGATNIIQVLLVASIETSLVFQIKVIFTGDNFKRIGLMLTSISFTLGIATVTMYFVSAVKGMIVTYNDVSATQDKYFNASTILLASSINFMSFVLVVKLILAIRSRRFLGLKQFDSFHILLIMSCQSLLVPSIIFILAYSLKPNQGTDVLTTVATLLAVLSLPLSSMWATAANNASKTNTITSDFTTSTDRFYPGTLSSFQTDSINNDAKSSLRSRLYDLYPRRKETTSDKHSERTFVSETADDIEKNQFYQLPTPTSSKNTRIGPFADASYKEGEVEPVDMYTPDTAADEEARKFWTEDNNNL
The assay is described as follows: cell-based or functional assay.

Turning to α-factor [reference compound], in assay [1], the “α-factor concentration at which shmooing (SSC-A) was most intense” value is ≥ 0.01 µM and the “α-factor concentration at which shmooing generally peaked” value came out at 1 µM.

With “α-factor (GenScript) (from UniProt P01149 90-102) (peptide)”, in assay [2], the fold change of induction of yEGFP, SSC-normalized, promoter PFIG1, maximum at 100 µM α-factor turned out to be 129 fold; the fold change of induction of yEGFP, SSC-normalized, promoter PHPF1 stood at 0.62 fold; the fold change of yEGFP, unnormalized, promoter PFIG1, 1 µM α-factor came out at 517 fold; the fold change of yEGFP, unnormalized, promoter PFIG1, 100 µM α-factor came to 483 fold. In assay [2], this substance yielded a fold upregulation of CD19 display, promoter PFIG1, 20 hrs α-factor of 630 fold; a fold upregulation of CD19 display, promoter PFUS1, 20 hrs α-factor of 774 fold; a fold upregulation of CD19 display, promoter PTDH3 of 3.1 fold; a general PRP-induced expression boost of yEGFP after 5 hrs of GPCR stimulation of 4.01 fold. In assay [2], this substance registered a maximal fold change of CD19 display, promoters PHPF1, PTDH3 and PPGK1, lower end of 2.9 to 3.8 fold; a maximal fold change of CD19 display, promoters PHPF1, PTDH3 and PPGK1, upper end of 2.9 to 3.8 fold.
